Results published in US9175313B2, “Three-dimensional structure of isoprene synthase and its use thereof for generating variants” (Danisco US Inc., priority 2009, dated 2015).
“Also recorded” adds a separate entry of the source.

Columns and labels:
[1] = Small scale expression and yield of purified 6xHis-tagged IspS variants; details: BL21(λDE3)pLysS, 100 mL cultures
Protocol: N-terminally 6×His-tagged wild type IspS, IspS-L494P, and IspS-T536F were expressed and purified from strains MD09-167, DW399, and DW363, respectively. The growth procedure is suitable for histidine tagged enzymes expressed in BL21(λDE3)pLysS cells. A 3 ml of overnight culture was prepared for each 100 mL of planned growth. The appropriate antibiotics ([…] kanamycin, […] chloramphenicol) were added to 3 ml of LB medium in a 10 ml glass tube and was inoculated with 1 colony from a fresh plate of cells or directly from glycerol frozen cell stock. Cultures were grown at 30° C. overnight with shaking at ˜220 rpm. Day cultures were prepared in 100 mL of LB medium with appropriate antibiotics for each culture. Each 100 mL day culture was inoculated with 50 μl of overnight culture and grown at 37° C. with shaking at ˜220 rpm until the OD600 reached ˜0.4-0.6. Day cultures were then induced with 400 μM IPTG and allowed to continue growing at 30° C. with shaking at 220 rpm for ˜5-6 hours. […] Following Harvest, cells were used directly or stored at −80° C. until ready to process. […]
To buffer exchange the protein into a buffer suitable for protein assays and storage, a PD-10 column (GE Healthcare) was equilibrated with 25 mL PD-10 buffer (50 mM HEPES, 0.05 M NaCl, pH 7.4). […] The eluate was then analyzed by absorbance at 280 nm and SDS-PAGE gel and the samples were stored at −80° C.

[2] = DMAPP assay of site evaluation library (SEL) lysates with ELISA protein quantitation: specific activity ranked as performance index; type: biochemical; details: for isoprene synthase activity of variants relative to parent, in words: SEL analysis of P. alba IspS; for performance index: primary SEL screen, activity on DMAPP per unit weight relative to the parental molecule (parent = 1)
Procedure, shortened: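 Induced E. coli cell pellets lysed in 50 mM Tris pH 8, 25 mM MgCl2, lysozyme, DNase I; 10-fold diluted supernatant reacted with DMAPP (20 mM working stock in 0.1 M phosphate pH 8.2) at 25° C for 30 min, stopped at 70° C for 12 min. Isoprene in headspace quantified by GC-MS.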

B1: L494P: P. alba IspS variant L494P; pDW101, strain DW399, SEQ ID NO: 69 (protein)
chain: MEARRSANYEPNSWDYDYLLSSDTDESIEVYKDKAKKLEAEVRREINNEKAEFLTLLELIDNVQRLGLGYRFESDIRGALDRFVSSGGFDAVTKTSLHGTALSFRLLRQHGFEVSQEAFSGFKDQNGNFLENLKEDIKAILSLYEASFLALEGENILDEAKVFAISHLKELSEEKIGKELAEQVNHALELPLHRRTQRLEAVWSIEAYRKKEDANQVLLELAILDYNMIQSVYQRDLRETSRWWRRVGLATKLHFARDRLIESFYWAVGVAFEPQYSDCRNSVAKMFSFVTIIDDIYDVYGTLDELELFTDAVERWDVNAINDLPDYMKLCFLALYNTINEIAYDNLKDKGENILPYLTKAWADLCNAFLQEAKWLYNKSTPTFDDYFGNAWKSSSGPLQLVFAYFAVVQNIKKEEIENLQKYHDTISRPSHIFRLCNDLASASAEIARGETANSVSCYMRTKGISEELATESVMNLIDETWKKMNKEKLGGSPFAKPFVETAINLARQSHCTYHNGDAHTSPDELTRKRVLSVITEPILPFERENLYFQGLEHHHHHH
expression level (yield of purified protein) compared to wild type, in words [1]: expressed at higher levels than the wild type protein
isoprene synthase activity of variants relative to parent, in words [2]: improved activity; also recorded: high performing
performance index [2]: 2.64

B2: T536F: P. alba IspS variant T536F; pDW87, strain DW363, SEQ ID NO: 95 (protein)
chain: MEARRSANYEPNSWDYDYLLSSDTDESIEVYKDKAKKLEAEVRREINNEKAEFLTLLELIDNVQRLGLGYRFESDIRGALDRFVSSGGFDAVTKTSLHGTALSFRLLRQHGFEVSQEAFSGFKDQNGNFLENLKEDIKAILSLYEASFLALEGENILDEAKVFAISHLKELSEEKIGKELAEQVNHALELPLHRRTQRLEAVWSIEAYRKKEDANQVLLELAILDYNMIQSVYQRDLRETSRWWRRVGLATKLHFARDRLIESFYWAVGVAFEPQYSDCRNSVAKMFSFVTIIDDIYDVYGTLDELELFTDAVERWDVNAINDLPDYMKLCFLALYNTINEIAYDNLKDKGENILPYLTKAWADLCNAFLQEAKWLYNKSTPTFDDYFGNAWKSSSGPLQLVFAYFAVVQNIKKEEIENLQKYHDTISRPSHIFRLCNDLASASAEIARGETANSVSCYMRTKGISEELATESVMNLIDETWKKMNKEKLGGSLFAKPFVETAINLARQSHCTYHNGDAHTSPDELTRKRVLSVIFEPILPFERENLYFQGLEHHHHHH
expression level (yield of purified protein) compared to wild type, in words [1]: expressed at higher levels than the wild type protein
isoprene synthase activity of variants relative to parent, in words [2]: improved isoprene synthase activity; also recorded: high performing
performance index [2]: 3.60
